Key:
[1] = biological target: Arp2/3 complex branch junction (sheep Arp2/3 complex bound to rabbit actin mother and daughter filaments) (sheep (endogenous in brain) | rabbit) (UniProt P68135)
[2] = biological target: Arp2/3 complex branch junction (sheep Arp2/3 complex bound to rabbit actin mother and daughter filaments) (sheep (endogenous in brain) | rabbit) (UniProt P68135); remark: listed apart in the source
[3] = biological target: Arp2/3 complex branch junction (sheep Arp2/3 complex bound to rabbit actin mother and daughter filaments) (sheep (endogenous in brain) | rabbit) (UniProt P68135); assay: microfluidics debranching assay under pulling force (TIRF microscopy of single branches); ADP-Arp2/3 branch junctions exposed to various GMF concentrations; constant average force 2.8 pN; 0.15 µM actin, 200 µM ATP; affinity from the fit of the saturation curve of the debranching rate

| stability (inverse debranching rate) of ADP-Arp2/3 complex branches at 6 pN with 20 nM cortactin against no cortactin [1] | debranching rate of ADP-Arp2/3 complex branch junctions against GMF concentration (2.8 pN, 0.15 µM actin, 200 µM ATP) [2] | Kd [3] | Substance |
| --- | --- | --- | --- |
| 30 fold | – | – | Mouse cortactin full length (amino acids 1–546) (from UniProt Q60598 1-546) (natural protein) |
| – | 6 fold | 30 nM | Recombinant N-terminal 6xHis-tagged human GMFγ (amino acids 7–140) (from UniProt O60234 7-140) (natural protein) |

Source: publication PMC13348673
